From the supplement of paper PMC9942255
Where “and” joins values, the source holds several entries; their conditions need not be identical. Identical values can stand only once.

Tested on: Bacillus subtilis DB104 (SP-AmyQ fusion secretion)
Assay: AmyQ secretion efficiency, weighted average sort bin (1 = best secretion, 10 = worst) (bin number (weighted average, 1-10)); higher = lower secretion efficiency
How it was run: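 Designed signal peptides were fused to mature AmyQ and expressed from the amyE locus in B. subtilis DB104, and this library was loaded at about 0.3 cells per ~65 nL alginate bead together with fluorescein-starch. After about 13 h of growth at room temperature and nile red staining, occupied beads were split into 10 equally populated bins by green/red fluorescence ratio using large-particle flow cytometry. Amplicons from every bin were Illumina-sequenced. The secretion score is the average bin number weighted by read frequency and normalised to beads per bin, excluding low-abundance sequences.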

| Sequence | AmyQ secretion efficiency |
| --- | --- |
| MKKRKRRFLLVSFVLFFALSTGITGVQAAPA | 2.95 |
| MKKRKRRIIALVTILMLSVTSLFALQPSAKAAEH | 2.06 |
| MKKRKRRNFKRFIAAFLVLALMIDVLAKST | 7.65 |
| MKKRKRRNFKRFIAAFLVLALMILSLVPADVLAKST | 2.47 |
| MKKRKRRNFKRFIAAFLVLALMIRRVPARVLAKST | 6.23 |
| MKKRKRRNFKRFIAAFLVLALMISGVPADVLAKST | 2.12 |
| MKKRKRRNFKRFIAAFLVLALMISLVPADALAKST | 1.92 |
| MKKRKRRNFKRFIAAFLVLALMISLVPADCLAKST | 3.04 |
| MKKRKRRNFKRFIAAFLVLALMISLVPADFLAKST | 4.42 |
| MKKRKRRNFKRFIAAFLVLALMISLVPADGLAKST | 2.45 |
| MKKRKRRNFKRFIAAFLVLALMISLVPADILAKST | 1.87 |
| MKKRKRRNFKRFIAAFLVLALMISLVPADKLAKST | 4.89 |
| MKKRKRRNFKRFIAAFLVLALMISLVPADMLAKST | 1.76 |
| MKKRKRRNFKRFIAAFLVLALMISLVPADSLAKST | 2.3 |
| MKKRKRRNFKRFIAAFLVLALMISLVPADTLAKST | 1.68 |
| MKKRKRRNFKRFIAAFLVLALMISLVPADVLAAKR | 5.17 |
| MKKRKRRNFKRFIAAFLVLALMISLVPADVLAEED | 3.75 |
| MKKRKRRNFKRFIAAFLVLALMISLVPADVLAKRK | 3.6 |
| MKKRKRRNFKRFIAAFLVLALMISLVPADVLGKST | 3.14 |
| MKKRKRRNFKRFIAAFLVLALMISLVPADVLKKST | 6.16 |
| MKKRKRRNFKRFIAAFLVLALMISLVPDVLAKST | 3.69 |
| MKKRKRRNFKRQGTQYKGLALMISLVPADVLAKST | 7.46 |
| MKKRKRRVSALTPSTTLAITAKAKEL | 6.69 |
| MKKRKRRVVLVLSIAGIGGFSVHAASS | 7.17 |
| MKKRKVLLSALLLLLFAFEPSASGKKL | 2.85 |

| Sequence | AmyQ secretion efficiency |
| --- | --- |
| MKKRKVLMAFIICLSLILSVLAAPPSGAKAESV | 1.28 |
| MKKRKVLTGSVLSLGLLVSASPAFATSP | 1.37 |
| MKKRKVMLATALFLGLTPAGANAADL | 4.31 |
| MKKRLIAPKLLSAASLAFFAMSGSAQAAAY | 3.27 |
| MKKRLIAPMFSSLLSAASLAFFAMSGSAQAAAY | 3.7 |
| MKKRLIAPMLKRAASLAFFAMSGSAQAAAY | 6.4 |
| MKKRLIAPMLKRKKRRAFFAMSGSAQAAAY | 7.88 |
| MKKRLIAPMLKRRKSLAFFAMSGSAQAAAY | 7.31 |
| MKKRLIAPMLLIAAILAFFAMSGSAQAAAY | 2.47 |
| MKKRLIAPMLLSAASLAFFAALIFILLLTFMSGSAQAAAY | 3.37 |
| MKKRLIAPMLLSAASLAFFAEEEEDEAQAAAY | 3.9 |
| MKKRLIAPMLLSAASLAFFAEEESAQAAAY | 2.27 |
| MKKRLIAPMLLSAASLAFFAKRKSAQAAAY | 7.88 |
| MKKRLIAPMLLSAASLAFFAMAQAAAY | 6.11 |
| MKKRLIAPMLLSAASLAFFAMFIIGSTAQAAAY | 4.67 |
| MKKRLIAPMLLSAASLAFFAMSGSAQAAAE | 2.56 |
| MKKRLIAPMLLSAASLAFFAMSGSAQAAAR | 4.69 |
| MKKRLIAPMLLSAASLAFFAMSGSAQAAEE | 2.23 |
| MKKRLIAPMLLSAASLAFFAMSGSAQAARR | 6.96 |
| MKKRLIAPMLLSAASLAFFAMSGSAQAEED | 2.35 |
| MKKRLIAPMLLSAASLAFFAMSGSAQARKK | 5.79 |
| MKKRLIAPMLLSAASLAFFAMSGSAQCAAY | 6 |
| MKKRLIAPMLLSAASLAFFAMSGSAQDAAY | 6.76 |
| MKKRLIAPMLLSAASLAFFAMSGSAQEAAY | 6.78 |
| MKKRLIAPMLLSAASLAFFAMSGSAQFAAY | 6.43 |

| Sequence | AmyQ secretion efficiency |
| --- | --- |
| MKKRLIAPMLLSAASLAFFAMSGSAQGAAY | 4.34 |
| MKKRLIAPMLLSAASLAFFAMSGSAQHAAY | 7.18 |
| MKKRLIAPMLLSAASLAFFAMSGSAQIAAY | 8.39 |
| MKKRLIAPMLLSAASLAFFAMSGSAQKAAY | 6.67 |
| MKKRLIAPMLLSAASLAFFAMSGSAQLAAY | 6.99 |
| MKKRLIAPMLLSAASLAFFAMSGSAQMAAY | 6.46 |
| MKKRLIAPMLLSAASLAFFAMSGSAQNAAY | 8.43 |
| MKKRLIAPMLLSAASLAFFAMSGSAQPAAY | 5.92 |
| MKKRLIAPMLLSAASLAFFAMSGSAQQAAY | 8.53 |
| MKKRLIAPMLLSAASLAFFAMSGSAQRAAY | 6.9 |
| MKKRLIAPMLLSAASLAFFAMSGSAQSAAY | 5.28 |
| MKKRLIAPMLLSAASLAFFAMSGSAQTAAY | 7.42 |
| MKKRLIAPMLLSAASLAFFAMSGSAQVAAY | 5.79 |
| MKKRLIAPMLLSAASLAFFAMSGSAQWAAY | 6.21 |
| MKKRLIAPMLLSAASLAFFAMSGSAQYAAY | 6.56 |
| MKKRLIAPMLLSAASLAFFAMSGSCQAAAY | 2.58 |
| MKKRLIAPMLLSAASLAFFAMSGSDQAAAY | 4.18 |
| MKKRLIAPMLLSAASLAFFAMSGSEQAAAY | 3.75 |
| MKKRLIAPMLLSAASLAFFAMSGSFQAAAY | 7.38 |
| MKKRLIAPMLLSAASLAFFAMSGSGAQAAAY | 3.78 |
| MKKRLIAPMLLSAASLAFFAMSGSGQAAAY | 5.16 |
| MKKRLIAPMLLSAASLAFFAMSGSHQAAAY | 5.04 |
| MKKRLIAPMLLSAASLAFFAMSGSIQAAAY | 6.12 |
| MKKRLIAPMLLSAASLAFFAMSGSKQAAAY | 3.82 |
| MKKRLIAPMLLSAASLAFFAMSGSLQAAAY | 5.33 |

| Sequence | AmyQ secretion efficiency |
| --- | --- |
| MKKRLIAPMLLSAASLAFFAMSGSMQAAAY | 5.75 |
| MKKRLIAPMLLSAASLAFFAMSGSNQAAAY | 3.88 |
| MKKRLIAPMLLSAASLAFFAMSGSPQAAAY | 5.7 |
| MKKRLIAPMLLSAASLAFFAMSGSQQAAAY | 4.52 |
| MKKRLIAPMLLSAASLAFFAMSGSRQAAAY | 6.03 |
| MKKRLIAPMLLSAASLAFFAMSGSSGAAGPSPAAQAAAY | 4.83 |
| MKKRLIAPMLLSAASLAFFAMSGSSQAAAY | 4.08 |
| MKKRLIAPMLLSAASLAFFAMSGSSVTAGAQAAAY | 6.18 |
| MKKRLIAPMLLSAASLAFFAMSGSTQAAAY | 3.66 |
| MKKRLIAPMLLSAASLAFFAMSGSVQAAAY | 4.49 |
| MKKRLIAPMLLSAASLAFFAMSGSYQAAAY | 6.45 |
| MKKRLIAPMLLSAASLAFFAMVAVIAQAAAY | 5.95 |
| MKKRLIAPMLLSAASLAFFAQEGSAQAAAY | 2.53 |
| MKKRLIAPMLLSAASLAFFARRKRKKAQAAAY | 7.44 |
| MKKRLIAPMLLSAASLAFFATFMSGSAQAAAY | 3.39 |
| MKKRLIAPMLLSAASLAFMSGSAQAAAY | 3.31 |
| MKKRLIAPMSGYGASLAFFAMSGSAQAAAY | 7.43 |
| MKKRLIGFLVLVPALIEDEEELIEANKK | 7.82 |
| MKKRLIGFLVLVPALIEDGITLIEANKK | 5.91 |
| MKKRLIGFLVLVPALIKSGITLIEANKK | 6.34 |
| MKKRLIGFLVLVPALIMIEANKK | 6.53 |
| MKKRLIGFLVLVPALIMSGITLAEANKK | 7.38 |
| MKKRLIGFLVLVPALIMSGITLDEANKK | 4.52 |
| MKKRLIGFLVLVPALIMSGITLEEANKK | 7.58 |
| MKKRLIGFLVLVPALIMSGITLGEANKK | 6.8 |

| Sequence | AmyQ secretion efficiency |
| --- | --- |
| MKKRLIGFLVLVPALIMSGITLIEANDD | 4.89 |
| MKKRLIGFLVLVPALIMSGITLIEANKK | 5.85 and 6.63 and 6.16 |
| MKKRLIGFLVLVPALIMSGITLIEANPY | 7.07 |
| MKKRLIGFLVLVPALIMSGITLIEANSE | 7.68 |
| MKKRLIGFLVLVPALIMSGITLIEARKK | 7.62 |
| MKKRLIGFLVLVPALIMSGITLIECNKK | 6.67 |
| MKKRLIGFLVLVPALIMSGITLIEDNKK | 7.79 |
| MKKRLIGFLVLVPALIMSGITLIEINKK | 7.02 |
| MKKRLIGFLVLVPALIMSGITLIELNKK | 6.99 |
| MKKRLIGFLVLVPALIMSGITLIEMNKK | 6.01 |
| MKKRLIGFLVLVPALIMSGITLIENNKK | 6.74 |
| MKKRLIGFLVLVPALIMSGITLIEPNKK | 7.44 |
| MKKRLIGFLVLVPALIMSGITLIERNKK | 6.81 |
| MKKRLIGFLVLVPALIMSGITLIESNKK | 5.98 |
| MKKRLIGFLVLVPALIMSGITLIEWNKK | 3.04 |
| MKKRLIGFLVLVPALIMSGITLIEYNKK | 9.98 |
| MKKRLIGFLVLVPALIMSGITLKEANKK | 6.33 |
| MKKRLIGFLVLVPALIMSGITLLEANKK | 6.63 |
| MKKRLIGFLVLVPALIMSGITLMEANKK | 7.17 |
| MKKRLIGFLVLVPALIMSGITLQEANKK | 7.31 |
| MKKRLIGFLVLVPALIMSGITLREANKK | 7.02 |
| MKKRLIGFLVLVPALIMSGITLYEANKK | 5.95 |
| MKKRLILLSAASLAFFAMSGSAQAAAY | 2.92 |
| MKKRLIQVMIMFTLLLRKRRSADAADS | 6.79 |
| MKKRLIQVMIMFTLLLRRKRRRRADAADS | 8.45 |
